Where a SMILES comes first, the peptide text is derived from it. Bridges are numbered along the chain shown (N, C = ends). Where no end group is shown, it is not given here.
Key:
[1] = target: T1, chip-linked Cys-S-MB (Homo sapiens, UniProt P07988, DEL226-262); assay: SPR binding to chip-linked Cys-S-MB; details: HBS-EP buffer pH 7.4 with 0.005% P20, 37°C, 50 µl/min, 1 µg peptide/ml; mean
T1 construct: made in house; host or cells: chemical solid-phase peptide synthesis (Fmoc), no expression host
T1 sequence (P07988 with tags, fused parts or gaps DEL226-262): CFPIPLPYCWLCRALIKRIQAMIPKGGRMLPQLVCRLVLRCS
Description: (§1) The respective binding affinities of S-MB and MB, both to themselves (self-association) and to each other (cross-association), were measured with surface plasmon resonance (SPR) spectroscopy using a Biacore 3000 system (Biacore, Uppsala, Sweden), [59]. S-MB and MB, each with a cysteine added to its N-terminus, were chemically linked to a thiol Biacore chip (BR-1000-14, research grade, containing a carboxymethylated dextran matrix covalently attached to a gold film). Solutions of peptide in HBS-EP buffer (i.e., 10 mM Hepes, pH 7.4, 150 mM NaCl, 3 mM EDTA, 0.005% surfactant P20) were then flowed over the chip-linked peptide at a flow rate of 50 µl/min to determine binding affinity at 37°C. Assessment of peptide binding was determined with sensorgrams, in which the arbitrary response units (RU) were plotted as a function of time. Binding associated with control medium containing no peptide was subtracted from final affinity curves, and mean “on” and “off” rate constants (kon and koff) and the dissociation equilibrium constant (KD = koff/kon) were calculated using BIAevaluation Software Version 4.1 based on curve fitting form measurements at 1 µg peptide/ml buffer concentration. The sensor surface was regenerated using 10 mM HCl between sample injections.

[2] = target: T2, chip-linked Cys-MB (Homo sapiens, UniProt P07988, DEL226-262); assay: SPR binding to chip-linked Cys-MB; details: HBS-EP buffer pH 7.4 with 0.005% P20, 37°C, 1 µg peptide/ml, mean; for koff / kon: 50 µl/min
T2 construct: made in house; host or cells: chemical solid-phase peptide synthesis (Fmoc), no expression host
Description: as §1

[3] = system: ventilated rats with ARDS induced by in vivo lavage; assay: Ventilated lung-lavaged rat model of ARDS; design: species or system Sprague-Dawley rats; details: n = 8–10; for relative order of pulmonary activity (oxygenation and compliance): 90 min after intratracheal 100 mg/kg surfactant; for arterial oxygenation (PaO2) / dynamic lung compliance: synthetic lipids +1.5 mol% peptide, 90 min; for arterial oxygenation (PaO2): 100% oxygen
Description: Animal experiments were performed under established protocols approved by the Animal Care and Use Committee at the Los Angeles Biomedical Research Institute at Harbor-UCLA Medical Center. Anesthesia, surgery, lavage, ventilation, and monitoring methods used have been detailed previously [35]–[37]. Briefly, adult male Sprague-Dawley rats weighing 200–225 g were anesthetized with 35 mg/kg pentobarbital sodium and 80 mg/kg ketamine by intraperitoneal injection, intubated, and ventilated with a rodent ventilator (Harvard Apparatus, South Natick, MA) with 100% oxygen, a tidal volume of 7.5 ml/kg and a rate of 60/min. An arterial line was placed in the abdominal aorta for measurements of arterial blood pressure and blood gases. Rats were paralyzed with 1 mg/kg pancuronium bromide intravenously. Only animals with PaO2 values >400 torr while ventilated with 100% oxygen and with normal blood pressure values were included in the experiments. Airway pressures were measured with a pressure transducer (Gould Inc., Cleveland, OH) and tidal volume with a pneumotachometer (Validyne, Northridge, CA) connected to a multi-channel recorder (Gould Inc., Cleveland, OH). The lungs were lavaged 8–12 times with 8 ml of pre-warmed 0.9% NaCl. After the PaO2 in 100% oxygen had reached stable values of <100 torr, the rats were treated with 100 mg/kg of experimental surfactant by intratracheal instillation. Arterial blood gases, tidal volume and airway pressures were determined at 15 min intervals throughout each experiment. Dynamic lung compliance was calculated by dividing tidal volume/kg body weight by changes in airway pressure (peak inspiratory pressure minus positive end-expiratory pressure) (mL/kg/cmH2O). Ninety minutes after surfactant instillation, rats were killed with 200 mg/kg pentobarbital sodium intravenously. Each treatment group consisted of 8–10 animals.

[4] = Captive bubble surfactometry, dynamic surface activity; type: physicochemical; details: for minimum surface tension: 1.5 mol% in synthetic lipids 16:10:6:1:2 (weight) DPPC:POPC:POPG:POPE:cholesterol, 20 cycles/min, ten cycles, 37°C, n = 4
Description: The captive bubble surfactometer used here was a fully-computerized version of that described by Schurch and co-workers [79]–[81]. In brief, the sample chamber of the apparatus was cut from high-quality cylindrical glass tubing (10 mm inner diameter). A Teflon® piston with a tight O-ring seal was fitted into the glass tubing from the top end, with a plug of buffered 1% agarose gel inserted between the piston and the surfactant solution that was added through a stainless steel port from the other end of the sample chamber. The chamber and piston were vertically mounted in a steel rack, the height of which was regulated by a precision micrometer gear. In a typical experiment, the chamber was filled with a buffered salt solution (140 mM NaCl, 10 mM HEPES, 2.5 mM CaCl2, pH 6.9) containing 10% sucrose. One µl of surfactant solution containing 35 µg of lipid was added to this subphase, which was stirred by a small magnetic bar at 37°C. The subphase volume in the sample chamber averaged 0.7 ml (0.5–1 ml), resulting in a final average surfactant lipid concentration of 50 µg/ml (35–75 µg/ml). An air bubble approximately 7 mm in diameter (∼200 µl in volume) was then introduced within the sample chamber and subjected to cyclic volume (surface area) changes by systematically varying the height of the steel rack following a 5 min pause to allow adsorption to the air-water interface. The ionic composition of the buffered agarose plug minimized bubble adhesion to the plug during cycling, so that an uninterrupted bubble interface was maintained. […] Bubble images were continuously monitored during compression-decompression using a digital video camera (PULNIX Model TM-200, Pulmix America Inc, Sunnyvale, CA) and a professional video recorder (Panasonic AG-1980P, Secaucus, NJ) coupled to a computer with an Intel Pentium 4 processor. […] Bubble areas and volumes were calculated by an original algorithm relating bubble height and diameter to areas of revolution, and bubble surface tension was determined by the method of Malcolm and Elliot. […]

[5] = FTIR, methanol; ref [30]; cited from earlier work
Description: Although the “10 nsec” MD simulation of dimer S-MB provides a reasonable framework to account for our SDS-PAGE and SPR results (Figs. 8 and 10), it is worthwhile to consider other structural models by which the N-terminal insertion sequence may promote the self-association of S-MB. One possible alternative is that oligomeric S-MB may be due to the N-terminal sequence (residues 1-7) forming β-sheet. The N-terminal SP-B(1–9) (Fig. 2) was earlier proposed to act as a ‘biochemical Velcro®,’ facilitating in vivo either the aggregation of SP-B or the interactions of SP-B with SP-C [50]. In support ...

[6] = target: T3, Cys-S-MB (Super Mini-B with a cysteine added to its N-terminus, chip-linked) (human); assay: SPR; Biacore 3000; Cys-MB or Cys-S-MB linked to a thiol chip; MB or S-MB at 1 µg peptide/ml in HBS-EP (10 mM Hepes, pH 7.4, 150 mM NaCl, 3 mM EDTA, 0.005% surfactant P20) flowed over at 50 µl/min, 37°C; constants from curve fitting at the one concentration; details: both partners purified
T3 construct: cysteine added to the N-terminus to link the peptide to the thiol Biacore chip; surfactant protein B (SP-B), human, residues 1-25; numbers count on: the mature protein (79 residues); surfactant protein B (SP-B), human, residues 63-78; Immobilised on the SPR chip; also called chipped S-MB; N-terminal Cys-S-MB
T3 chain: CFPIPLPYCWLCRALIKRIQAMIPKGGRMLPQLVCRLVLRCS

[7] = target: T4, Cys-MB (Mini-B with a cysteine added to its N-terminus, chip-linked) (human); assay: as above; details: both partners purified
T4 construct: cysteine added to the N-terminus to link the peptide to the thiol Biacore chip; surfactant protein B (SP-B), human, residues 8-25; numbers count on: the mature protein (79 residues); surfactant protein B (SP-B), human, residues 63-78; Immobilised on the SPR chip; also called chipped MB; N-terminal Cys-MB
T4 chain: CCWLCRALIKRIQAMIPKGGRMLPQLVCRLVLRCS

[8] = lipid monolayers containing palmitic acid; ref [31], [32]; cited from earlier work
Description: Previous structural and functional studies with synthetic peptides representing the N- and C-terminal regions of SP-B further support the hypothesis that these charged amphipathic helices participate in surfactant activities. […] The cationic N-terminus of SP-B may here interact with anionic lipids to remove the driving force for lipid squeeze-out from the surface film, [32]. In additional studies, SP-B(1–25 ...

[9] = intratracheal 100 mg/kg surfactant

Work on `CC[C@H](C)[C@@H]1NC(=O)[C@H](CCCNC(=N)N)NC(=O)[C@H](CCCCN)NC(=O)[C@H]([C@@H](C)CC)NC(=O)[C@H](CC(C)C)NC(=O)[C@H](C)NC(=O)[C@H](CCCNC(=N)N)NC(=O)[C@@H]2CSSC[C@H](NC(=O)[C@H](C(C)C)NC(=O)[C@H](CC(C)C)NC(=O)[C@H](CCC(N)=O)NC(=O)[C@@H]3CCCN3C(=O)[C@H](CC(C)C)NC(=O)[C@H](CCSC)NC(=O)[C@H](CCCNC(=N)N)NC(=O)CNC(=O)CNC(=O)[C@H](CCCCN)NC(=O)[C@@H]3CCCN3C(=O)[C@H]([C@@H](C)CC)NC(=O)[C@H](CCSC)NC(=O)[C@H](C)NC(=O)[C@H](CCC(N)=O)NC1=O)C(=O)N[C@@H](CCCNC(=N)N)C(=O)N[C@@H](CC(C)C)C(=O)N[C@@H](C(C)C)C(=O)N[C@@H](CC(C)C)C(=O)N[C@@H](CCCNC(=N)N)C(=O)N[C@H](C(=O)N[C@@H](CO)C(=O)O)CSSC[C@H](N)C(=O)N[C@@H](Cc1c[nH]c3ccccc13)C(=O)N[C@@H](CC(C)C)C(=O)N2` [MB] (H-CWLCRALIKRIQAMIPKGGRMLPQLVCRLVLRCS-OH; disulfide 1-33, 4-27) yielded a koff [1] of 0.00806 s⁻¹, a kon [1] of 200000 M⁻¹ s⁻¹ and a koff [2] of 0.0168 s⁻¹. The kon [2] was 91900 M⁻¹ s⁻¹ and the Kd ([2]; KD = koff/kon) was 183 nM.

Molecule “FPIPLPYCWLCRALIKRIQAMIPKGGRMLPQLVCRLVLRCS (disulfide 8-40, 11-34) [S-MB]” has a koff [1] of 0.000901 s⁻¹, a kon [1] of 44700 M⁻¹ s⁻¹ and a koff [2] of 0.00736 s⁻¹. For the same molecule, the kon [2] was 141000 M⁻¹ s⁻¹.

In the case of H-FPIPLPYC-NH2 [SP-B(1–8)], the “relative order of pulmonary activity (oxygenation and compliance)” value [3] is reported as “S-MB > MB > pig SP-B > SP-B(1–8)> lipids alone”, the “arterial oxygenation (PaO2)” value [3, 9] is reported as “minimal effects” and the dynamic lung compliance [3, 9] is reported as “minimal effects”. For the same molecule, the minimum surface tension [4] was 20 mN/m and the “statistical comparison of minimum surface tension” value ([4]; after ten cycles, versus S-MB, MB and pig SP-B surfactants) was “significantly higher”.

In the case of “SP-B(1–9): N-terminal SP-B(1–9) peptide (FPIPLPYCW; Pulmonary surfactant-associated protein B; UniProt P07988 201-209, looked up, fragment)”, the β-sheet content [5] is given as 26.3% and the “β-sheet content in residues” value [5] is given as ~2.4 residues.

B1: Mini-B (peptide)
chain: CWLCRALIKRIQAMIPKGGRMLPQLVCRLVLRCS
notes: surfactant protein B (SP-B), human, residues 8-25 (N-terminal helix region); numbers count on: the mature protein (79 residues); surfactant protein B (SP-B), human, residues 63-78 (C-terminal helix region); Oxidised form with intramolecular disulfides Cys-8 to Cys-40 and Cys-11 to Cys-34 (S-MB numbering); also called MB; source: synthetic peptide (Fmoc solid phase, HPLC-purified, air-oxidised)
B1 showed a Kd [6] of 40.4 nM, a koff [6] of 0.00806 s⁻¹ and a kon [6] of 200000 M⁻¹ s⁻¹. It also gave a Kd [7] of 183 nM, a koff [7] of 0.0168 s⁻¹ and a kon [7] of 91900 M⁻¹ s⁻¹.

B2: SP-B: 79 amino acids, lipid-associating lung protein, covalently linked homodimer (protein, UniProt P07988 201-279, looked up)
Pulmonary …: FPIPLPYCWLCRALIKRIQAMIPKGALAVAVAQVCRVVPLVAGGICQCLAERYSVILLDTLLGRMLPQLVCRLVLRCSM
modifications: Pulmonary surfactant-associated protein B
notes: 79 amino acids, lipid-associating lung protein, covalently linked homodimer
In the case of B2, the “collapse pressure of lipid monolayers” value [8] is listed as “increase the collapse pressure”.

B3: pig SP-B: native pig SP-B, positive control (protein, UniProt P15782 1-79, looked up)
Pulmonary …: FPIPLPFCWLCRTLIKRIQAVVPKGVLLKAVAQVCHVVPLPVGGICQCLAERYIVICLNMLLDRTLPQLVCGLVLRCSS
modifications: Pulmonary surfactant-associated protein B
notes: native pig SP-B, positive control
For B3, the “relative order of pulmonary activity (oxygenation and compliance)” value [3] was “S-MB > MB > pig SP-B > SP-B(1–8)> lipids alone”, the “arterial oxygenation (PaO2)” value [3, 9] was “increased quickly” and the dynamic lung compliance [3, 9] was “increased quickly”. For the same molecule, the “oxygenation and compliance versus SP-B1-8 and lipids only surfactants” value [3, 9] was “consistently surpassed the performance of SP-B1-8 and lipids only surfactants (p<0.001)”, the “significance of differences in oxygenation and compliance between S-MB, MB and pig SP-B” value [3, 9] was “statistically significant (p<0.05) starting at 30 min after surfactant instillation” and the minimum surface tension [4] was < 3 mN/m.

— publication PMC2805716, “Critical Structural and Functional Roles for the N-Terminal Insertion Sequence in Surfactant Protein B Analogs” (PLoS ONE, 2010)
